In paper PMC9482650, “Quantitative fragmentomics allow affinity mapping of interactomes” (Nature Communications, 2022):

T1: GRIP1_4, Q9Y3R0
T1 sequence (Q9Y3R0 467-571, limits assumed, looked up): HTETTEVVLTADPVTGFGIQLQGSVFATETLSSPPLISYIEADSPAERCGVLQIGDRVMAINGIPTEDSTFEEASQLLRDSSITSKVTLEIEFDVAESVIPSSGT

T2: PARD3B_1, Q8TEW8
T2 sequence (Q8TEW8 196-299, limits assumed, looked up): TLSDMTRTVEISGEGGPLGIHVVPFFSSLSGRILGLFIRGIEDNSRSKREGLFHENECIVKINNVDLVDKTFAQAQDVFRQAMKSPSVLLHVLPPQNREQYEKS

T3: LNX2_2, Q8N448
T3 sequence (Q8N448 334-432, limits assumed, looked up): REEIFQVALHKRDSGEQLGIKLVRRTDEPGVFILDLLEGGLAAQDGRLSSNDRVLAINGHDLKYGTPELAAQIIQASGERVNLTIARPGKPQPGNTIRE

T4: SIPA1L2, Q9P2F8
T4 sequence (Q9P2F8 945-1036, limits assumed, looked up): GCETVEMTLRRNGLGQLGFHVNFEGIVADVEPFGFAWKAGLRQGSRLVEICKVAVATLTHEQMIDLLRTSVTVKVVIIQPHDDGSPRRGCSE

T5: GRIP1_7, Q9Y3R0
T5 sequence (Q9Y3R0 999-1096, limits assumed, looked up): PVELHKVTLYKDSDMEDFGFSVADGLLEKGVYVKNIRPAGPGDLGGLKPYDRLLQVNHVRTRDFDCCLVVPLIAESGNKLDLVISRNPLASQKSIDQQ

T6: TIAM2, Q8IVF5
T6 sequence (Q8IVF5 885-986, limits assumed, looked up): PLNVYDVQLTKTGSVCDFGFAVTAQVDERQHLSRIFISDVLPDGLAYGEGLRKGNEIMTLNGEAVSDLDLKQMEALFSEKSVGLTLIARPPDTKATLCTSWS

T7: LRRC7, Q96NW7
T7 sequence (Q96NW7 1440-1537, limits assumed, looked up): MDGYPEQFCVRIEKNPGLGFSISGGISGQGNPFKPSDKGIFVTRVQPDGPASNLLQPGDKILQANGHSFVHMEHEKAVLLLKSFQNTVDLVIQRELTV

T8: PCLO, Q9Y6V0
T8 sequence (Q9Y6V0 4491-4600, limits assumed, looked up): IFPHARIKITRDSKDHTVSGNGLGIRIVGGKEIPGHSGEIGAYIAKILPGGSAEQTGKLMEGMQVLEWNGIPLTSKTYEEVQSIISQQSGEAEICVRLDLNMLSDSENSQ

T9: MPDZ_10, O75970
T9 sequence (O75970 1624-1722, limits assumed, looked up): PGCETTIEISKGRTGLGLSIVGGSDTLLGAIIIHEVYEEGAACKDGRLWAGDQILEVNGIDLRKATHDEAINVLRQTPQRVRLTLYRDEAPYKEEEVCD

T10: DFNB31_3, Q9P202
T10 sequence (Q9P202 811-907, limits assumed, looked up): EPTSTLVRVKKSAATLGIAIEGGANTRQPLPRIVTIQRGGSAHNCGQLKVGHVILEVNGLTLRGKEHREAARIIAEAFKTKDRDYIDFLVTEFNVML

T11: DLG3_1, Q92796
T11 sequence (Q92796 125-227, limits assumed, looked up): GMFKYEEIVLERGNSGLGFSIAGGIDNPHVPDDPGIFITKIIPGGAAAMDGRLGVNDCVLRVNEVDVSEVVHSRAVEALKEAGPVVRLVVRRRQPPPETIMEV


What was measured:
Assay in all cases: holdup assay
Set-up in all cases: key: below the threshold = too weak to quantify, mostly under pKd 3.1 to 4
Details in all cases: plain residues with an end cap or a label only (N-terminal biotin on a linker: ado-ado)
[1] = target: GRID2IP_1, A4D2P6
Sequence of GRID2IP_1, A4D2P6 (A4D2P6 1-87): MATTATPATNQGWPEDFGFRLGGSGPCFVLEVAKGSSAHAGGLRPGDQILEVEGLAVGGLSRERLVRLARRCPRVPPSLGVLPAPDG

[2] = target: SCRIB_2, Q14160
Sequence of SCRIB_2, Q14160 (Q14160 857-960): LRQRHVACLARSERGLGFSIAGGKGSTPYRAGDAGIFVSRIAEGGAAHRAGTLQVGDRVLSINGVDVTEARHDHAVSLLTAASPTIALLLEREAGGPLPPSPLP

[3] = target: NOS1, P29475
Sequence of NOS1, P29475 (P29475 9-101): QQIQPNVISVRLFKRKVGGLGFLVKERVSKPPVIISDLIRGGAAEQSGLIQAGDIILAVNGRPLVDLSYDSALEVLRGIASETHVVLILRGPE

[4] = target: T1, GRIP1_4, Q9Y3R0
[5] = target: T2, PARD3B_1, Q8TEW8
[6] = target: MAGI2_3, Q86UL8
Sequence of MAGI2_3, Q86UL8 (Q86UL8 600-682): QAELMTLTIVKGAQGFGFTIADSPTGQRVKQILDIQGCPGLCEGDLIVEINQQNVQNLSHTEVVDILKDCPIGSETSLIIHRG

[7] = target: DLG4_2, P78352
Sequence of DLG4_2, P78352 (P78352 155-259): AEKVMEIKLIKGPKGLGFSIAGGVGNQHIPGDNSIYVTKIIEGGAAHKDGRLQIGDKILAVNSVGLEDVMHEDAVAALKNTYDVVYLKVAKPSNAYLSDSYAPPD

[8] = target: HTRA1, Q92743
Sequence of HTRA1, Q92743 (Q92743 360-477): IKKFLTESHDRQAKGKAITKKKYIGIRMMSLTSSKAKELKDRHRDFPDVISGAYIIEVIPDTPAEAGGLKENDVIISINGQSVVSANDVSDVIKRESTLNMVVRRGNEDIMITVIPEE

[9] = target: DLG2_2, Q15700
Sequence of DLG2_2, Q15700 (Q15700 189-283): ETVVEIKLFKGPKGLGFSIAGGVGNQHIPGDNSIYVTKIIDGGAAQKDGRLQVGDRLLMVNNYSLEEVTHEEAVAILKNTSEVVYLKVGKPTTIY

[10] = target: DLG1_1, Q12959
[11] = target: T3, LNX2_2, Q8N448
[12] = target: T4, SIPA1L2, Q9P2F8
[13] = target: AHNAK1, Q09666
Sequence of AHNAK1, Q09666 (Q09666 4-100): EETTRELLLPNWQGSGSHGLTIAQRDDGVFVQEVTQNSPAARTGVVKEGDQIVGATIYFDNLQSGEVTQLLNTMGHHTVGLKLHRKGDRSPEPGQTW

[14] = target: T5, GRIP1_7, Q9Y3R0
[15] = target: LAP2, Q96RT1
Sequence of LAP2, Q96RT1 (Q96RT1 other isoform, or with tags, fused parts or gaps): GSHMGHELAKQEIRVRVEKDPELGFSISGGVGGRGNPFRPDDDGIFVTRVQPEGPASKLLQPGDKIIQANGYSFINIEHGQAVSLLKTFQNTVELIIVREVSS

[16] = target: T6, TIAM2, Q8IVF5
[17] = target: NHERF4_2, Q86UT5
Sequence of NHERF4_2, Q86UT5 (Q86UT5 220-308): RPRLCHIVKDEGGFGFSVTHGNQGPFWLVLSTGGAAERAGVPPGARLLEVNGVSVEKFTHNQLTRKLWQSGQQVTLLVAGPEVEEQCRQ

[18] = target: SCRIB_3, Q14160
Sequence of SCRIB_3, Q14160 (Q14160 999-1103): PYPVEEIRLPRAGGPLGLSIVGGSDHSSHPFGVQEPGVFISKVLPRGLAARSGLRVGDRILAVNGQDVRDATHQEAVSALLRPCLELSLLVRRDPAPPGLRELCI

[19] = target: T7, LRRC7, Q96NW7
[20] = target: T8, PCLO, Q9Y6V0
[21] = target: MAGI2_6, Q86UL8
Sequence of MAGI2_6, Q86UL8 (Q86UL8 1141-1229): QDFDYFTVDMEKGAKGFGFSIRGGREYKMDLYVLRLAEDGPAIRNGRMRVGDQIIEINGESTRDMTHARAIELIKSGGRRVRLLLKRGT

[22] = target: PDLIM1, O00151
Sequence of PDLIM1, O00151 (O00151 1-87): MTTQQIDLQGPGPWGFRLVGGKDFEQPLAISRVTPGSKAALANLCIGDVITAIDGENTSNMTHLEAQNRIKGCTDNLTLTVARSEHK

[23] = target: T9, MPDZ_10, O75970
[24] = target: T10, DFNB31_3, Q9P202
[25] = target: TJP1_2, Q07157
Sequence of TJP1_2, Q07157 (Q07157 181-274): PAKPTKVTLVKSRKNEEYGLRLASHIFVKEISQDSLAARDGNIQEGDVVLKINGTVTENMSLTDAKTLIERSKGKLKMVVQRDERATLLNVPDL

[26] = target: Inadl_1, Q8NI35
Sequence of Inadl_1, Q8NI35 (Q8NI35 113-229): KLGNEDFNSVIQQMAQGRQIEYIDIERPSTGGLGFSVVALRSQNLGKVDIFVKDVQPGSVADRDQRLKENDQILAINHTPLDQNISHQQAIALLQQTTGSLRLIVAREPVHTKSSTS

[27] = target: T11, DLG3_1, Q92796

pKd [1] | pKd [2] | pKd [3] | pKd [4] | pKd [5] | pKd [6] | pKd [7] | pKd [8] | pKd [9] | pKd [10] | pKd [11] | pKd [12] | pKd [13] | pKd [14] | pKd [15] | pKd [16] | pKd [17] | pKd [18] | pKd [19] | pKd [20] | Binder | further results
below the threshold | below the threshold | 3.93 | below the threshold | 3.8 | below the threshold | below the threshold | 4.15 | below the threshold | below the threshold | 3.87 | below the threshold | below the threshold | below the threshold | below the threshold | below the threshold | below the threshold | below the threshold | below the threshold | below the threshold | GQSVDLVFPV [AKIP1, Q9NQ31] | pKd [21]: below the threshold; pKd [22]: below the threshold; pKd [23]: below the threshold; pKd [24]: below the threshold; pKd [25]: below the threshold; pKd [26]: 3.5; pKd [27]: below the threshold
below the threshold | 3.53 | 3.98 | below the threshold | below the threshold | below the threshold | 4.88 | 4.36 | 4.51 | 4.42 | below the threshold | below the threshold | below the threshold | below the threshold | 3.49 | below the threshold | below the threshold | 4.11 | below the threshold | below the threshold | SMLNRRTTPV [CACNG4, Q9UBN1] | pKd [21]: below the threshold; pKd [22]: below the threshold; pKd [23]: 3.92; pKd [24]: below the threshold; pKd [25]: below the threshold; pKd [26]: below the threshold; pKd [27]: 3.71
